The text below walks through data of patent US20190161786A1.

This test concerns the target wild-type Savinase (Bacillus lentus protease of SEQ ID NO: 3) (Bacillus lentus) (UniProt P41362). Briefly: cell-based or functional assay.
Sequence of UniProt P41362 (P41362 28-380, tags left off): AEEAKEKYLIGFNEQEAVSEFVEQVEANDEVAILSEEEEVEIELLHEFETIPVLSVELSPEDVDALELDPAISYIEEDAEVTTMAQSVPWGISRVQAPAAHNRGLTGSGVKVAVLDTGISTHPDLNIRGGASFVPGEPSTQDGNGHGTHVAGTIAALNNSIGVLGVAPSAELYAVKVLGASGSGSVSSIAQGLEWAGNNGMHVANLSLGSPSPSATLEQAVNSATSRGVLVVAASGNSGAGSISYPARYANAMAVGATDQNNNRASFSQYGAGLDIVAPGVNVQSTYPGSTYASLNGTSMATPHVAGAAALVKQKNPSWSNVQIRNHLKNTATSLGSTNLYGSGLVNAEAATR

With “ovoinhibitor isolated from hen egg white (from UniProt P10184 69-517)”, the amount of released amplicon A (qPCR of DNA released from alpha-casein-coated microspheres by the expressed protease), compared to the amount released in the absence of ovoinhibitor was found to be 68%.
